From patent US20260348975 (published 2026) come the findings set out here.

What all share (assay): SPR
One experiment addresses T1, IL-33/sST2 complex (human).
T1 chain 1: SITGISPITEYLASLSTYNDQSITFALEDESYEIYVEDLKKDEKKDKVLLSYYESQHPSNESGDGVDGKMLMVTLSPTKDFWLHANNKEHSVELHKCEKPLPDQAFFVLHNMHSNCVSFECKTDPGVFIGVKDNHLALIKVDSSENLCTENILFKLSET
T1 chain 2: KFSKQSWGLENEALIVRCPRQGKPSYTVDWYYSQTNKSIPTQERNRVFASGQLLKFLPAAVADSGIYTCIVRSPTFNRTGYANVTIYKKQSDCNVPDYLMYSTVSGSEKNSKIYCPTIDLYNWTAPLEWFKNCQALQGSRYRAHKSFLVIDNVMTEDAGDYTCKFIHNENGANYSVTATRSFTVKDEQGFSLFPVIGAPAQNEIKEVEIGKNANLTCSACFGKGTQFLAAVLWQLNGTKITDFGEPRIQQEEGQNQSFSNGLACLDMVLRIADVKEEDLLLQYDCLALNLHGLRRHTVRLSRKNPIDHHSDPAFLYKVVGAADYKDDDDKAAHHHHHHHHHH

The target of a further experiment is T2, reduced IL-33 (human).
T2 chain: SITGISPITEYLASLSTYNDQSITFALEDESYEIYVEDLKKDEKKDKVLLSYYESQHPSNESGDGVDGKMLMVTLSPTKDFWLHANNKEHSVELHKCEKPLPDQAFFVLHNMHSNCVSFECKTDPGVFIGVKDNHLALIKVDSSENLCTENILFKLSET

The next experiment addresses T3, oxidized IL-33 (human).
T3 chain: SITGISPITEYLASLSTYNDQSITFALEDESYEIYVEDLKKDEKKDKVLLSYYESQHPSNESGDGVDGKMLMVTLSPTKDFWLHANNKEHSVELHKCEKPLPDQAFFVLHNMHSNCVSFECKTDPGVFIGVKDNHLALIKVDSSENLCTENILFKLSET

B1: AB1070008 (antibody, V domains shown)
VH: QVQLQQSGPELVKPGASVKTSCKASGYSFTSYYIHWVKQRPGQGLEWIGWIYPGSGNTKYNEKFKGKATLTADTSSSTAFMQLSSLTSEDSAVYYCASGFHYYGRMDYWGQGTTLTVSS
VL: DIQMTQSPSSLSASLGERVSLTCRASQEISGYLSWLQQKPDGTIKRLIYSTSTLDSGVPKSFSGSRSGSDYSLTISSLESEDFADYYCLQYASSPWTFGGGTKLEIK
Regarding B1, the Kd (usually the equilibrium constant for the complex coming apart) with IL-33/sST2 complex turned out to be 26.5 nM; in the experiment with reduced IL-33, 0.895 nM.

B2: AB1070141 (antibody, V domains shown)
VH: QVQLQQSGAELMKPGASVKLSCKATGYIVTDYWIEWVKQRPGHGLEWIGEILPRSDSTNYNEKFKVRATFTADTSSNTAYMQLSSLTTEDSAIYYCASHYHYDGSLFVYWGQGTLVTVSS
VL: DIVMSQSPSSLAVSAGEKVTMSCKSSQSLLNSRTRKNYLAWYQQKPGQSPKLLIYWASTRESGVPDRFTGSGSGTDFTLTISSVQAEDLAVYYCKQSYSLPTFGGGTKLEIK
B2: in the experiment with oxidized IL-33, binding was characterised by a dissociation constant (Kd) of 1.83 nM. This counts as single-digit nanomolar.

B3: AB1070019 (antibody, V domains shown)
VH: QVQLQQSGAELAKPGASVKMSCKASGYTFTRYWMHWIKQRPGQGLEWIGYINPYSGYTEYNQKFKDKATLTADKSSSTAYMQLSSLTSEDSAVYYCARYSYYTYDGRGYAMDYWGQGTSVTVSS
VL: DIVMTQSQKFMSTSVGDRVSVTCKASQNVGTNVAWYQQKPGQSPKALIYSASYRYSGVPDRFTGSGSGTDFTLTISNVQSEDLAEYFCQQYNSYPFTFGSGTKLEIK
B3 displayed a Kd with reduced IL-33 of 0.068 nM. This lies in the picomolar range.
